First the molecules themselves.
T1: human G-CSF receptor (human, UniProt Q99062 25-836)
T1 sequence (looked up): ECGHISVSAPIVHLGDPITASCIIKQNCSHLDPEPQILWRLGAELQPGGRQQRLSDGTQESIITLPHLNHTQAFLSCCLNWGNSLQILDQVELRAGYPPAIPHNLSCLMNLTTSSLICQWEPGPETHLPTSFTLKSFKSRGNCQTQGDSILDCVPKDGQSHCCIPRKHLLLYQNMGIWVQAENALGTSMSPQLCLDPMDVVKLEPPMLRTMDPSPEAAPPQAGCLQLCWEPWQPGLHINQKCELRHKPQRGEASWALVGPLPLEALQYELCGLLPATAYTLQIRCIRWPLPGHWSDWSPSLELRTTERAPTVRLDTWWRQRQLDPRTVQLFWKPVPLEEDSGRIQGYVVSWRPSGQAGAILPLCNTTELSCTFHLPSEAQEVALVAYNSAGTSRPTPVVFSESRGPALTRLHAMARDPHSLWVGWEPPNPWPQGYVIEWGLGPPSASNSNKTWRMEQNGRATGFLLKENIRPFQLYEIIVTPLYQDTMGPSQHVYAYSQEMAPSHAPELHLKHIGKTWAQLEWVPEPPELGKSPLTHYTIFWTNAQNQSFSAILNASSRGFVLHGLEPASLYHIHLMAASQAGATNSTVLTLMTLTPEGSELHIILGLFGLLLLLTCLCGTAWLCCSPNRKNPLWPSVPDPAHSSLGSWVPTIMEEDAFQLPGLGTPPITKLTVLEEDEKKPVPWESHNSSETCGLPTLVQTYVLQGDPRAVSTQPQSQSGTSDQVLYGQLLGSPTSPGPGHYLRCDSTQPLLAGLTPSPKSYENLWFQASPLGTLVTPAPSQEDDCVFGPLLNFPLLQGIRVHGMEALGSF

B1: G-CSF receptor agonist expressed from pMON25186 (ligand)
chain: AMAPALQPTQGAMPAFASAFQRRAGGVLVASHLQSFLEVSYRVLRHLAQPSGGSGGSQSFLLKSLEQVRKIQGDGAALQEKATYKLCHPEELVLLGHSLGIPWAPLSSCPSQALQLAGCLSQLHSGLFLYQGLLQALEGISPELGPTLDTLQLDVADFATTIWQQMEELG
B2: G-CSF receptor agonist expressed from pMON3455 (ligand)
chain: AYKLCHPEELVLLGHSLGIPWAPLSSCPSQALQLAGCLSQLHSGLFLYQGLLQALEGISPELGPTLDTLQLDVADFATTIWQQMEELGMAPALQPTQGAMPAFASAFQRRAGGVLVASHLQSFLEVSYRVLRHLAQPSGGSGGSQSFLLKSLEQVRKIQGDGAALQEKLCAT
B3: G-CSF receptor agonist expressed from pMON25183 (ligand)
chain: ATQGAMPAFASAFQRRAGGVLVASHLQSFLEVSYRVLRHLAQPTPLGPASSLPQSFLLKSLEQVRKIQGDGAALQEKLCATYKLCHPEELVLLGHSLGIPWAPLSSCPSQALQLAGCLSQLHSGLFLYQGLLQALEGISPELGPTLDTLQLDVADFATTIWQQMEELGMAPALQP
B4: G-CSF receptor agonist expressed from pMON25182 (ligand)
chain: AMAPALQPTQGAMPAFASAFQRRAGGVLVASHLQSFLEVSYRVLRHLAQPTPLGPASSLPQSFLLKSLEQVRKIQGDGAALQEKLCATYKLCHPEELVLLGHSLGIPWAPLSSCPSQALQLAGCLSQLHSGLFLYQGLLQALEGISPELGPTLDTLQLDVADFATTIWQQMEELG
B5: G-CSF receptor agonist expressed from pMON3499 (ligand)
chain: LLGHSLGIPWAPLSSCPSQALQLAGCLSQLHSGLFLYQGLLQALEGISPELGPTLDTLQLDVADFATTIWQQMEELGMAPALQPTQGAMPAFASAFQRRAGGVLVASHLQSFLEVSYRVLRHLAQPTPLGPASSLPQSFLLKSLEQVRKIQGDGAALQEKLCATYKLCHPEELV
B6: G-CSF receptor agonist expressed from pMON3450 (ligand)
chain: AYKLCHPEELVLLGHSLGIPWAPLSSCPSQALQLAGCLSQLHSGLFLYQGLLQALEGISPELGPTLDTLQLDVADFATTIWQQMEELGMAPALQPTQGAMPAFASAFQRRAGGVLVASHLQSFLEVSYRVLRHLAQPTPLGPASSLPQSFLLKSLEQVRKIQGDGAALQEKLCAT
B7: G-CSF receptor agonist expressed from pMON25187 (ligand)
chain: ATQGAMPAFASAFQRRAGGVLVASHLQSFLEVSYRVLRHLAQPSGGSGGSQSFLLKSLEQVRKIQGDGAALQEKLCATYKLCHPEELVLLGHSLGIPWAPLSSCPSQALQLAGCLSQLHSGLFLYQGLLQALEGISPELGPTLDTLQLDVADFATTIWQQMEELGMAPALQP
B8: G-CSF receptor agonist expressed from pMON25188 (ligand)
chain: ASAFQRRAGGVLVASHLQSFLEVSYRVLRHLAQPSGGSGGSQSFLLKSLEQVRKIQGDGAALQEKLCATYKLCHPEELVLLGHSLGIPWAPLSSCPSQALQLAGCLSQLHSGLFLYQGLLQALEGISPELGPTLDTLQLDVADFATTIWQQMEELGMAPALQPTQGAMPAFA
B9: G-CSF receptor agonist expressed from pMON25184 (ligand)
chain: ASAFQRRAGGVLVASHLQSFLEVSYRVLRHLAQPTPLGPASSLPQSFLLKSLEQVRKIQGDGAALQEKLCATYKLCHPEELVLLGHSLGIPWAPLSSCPSQALQLAGCLSQLHSGLFLYQGLLQALEGISPELGPTLDTLQLDVADFATTIWQQMEELGMAPALQPTQGAMPAFA

Data on ten molecules can be found in US6358505 (dated 2002).

The assay deals with T1, human G-CSF receptor. Kind of assay: cell-based or functional assay.
As to “native G-CSF (from UniProt P09919 31-204) (ligand)”, the EC50 (pM), Baf/3-G-CSF cell proliferation assay was 60 pM. For the molecule B1, the “EC50 (pM), Baf/3-G-CSF cell proliferation assay” value (shortened to “EC50 (pM)”) was found to be 92 pM. B2: the “EC50 (pM)” value was 102 pM. Next, B3: 58 pM; B4: 38 pM; B5: 137 pM.

As for B6, the “EC50 (pM)” value was found to be 121 pM. The result for B7 reads 83 pM; that for B8, 41 pM. Next, B9: 70 pM.
